This note sets out measurements from patent publication US20260167699A1 (Chugai, published 2026).

Substitutions are numbered along the chain they refer to. Names and notes keep the numbering of the source. Like-named read-outs stand apart in the source and are kept apart here. Some results are limits rather than exact numbers.

One may read the Kd as the constant that tells how readily two partners part at equilibrium. Higher therefore signals a looser complex.

Experiment [1] has as its target T1, FcγRIIIa extracellular domain with C-terminal His tag (allotype not given) (UniProt P08637 17-208, limits assumed).
T1 construct: extracellular domain; also called 3a
The experiment can be described thus: SPR (Biacore), from the KD values of Table 5. Background: SPR reads the build-up and loss of mass on a sensor chip optically.

In experiment [2] the target is T2, integrin αvβ3 (R & D Systems, Inc.) (UniProt P06756 31-992; P05106 27-718).
T2 construct: Bought protein
The experiment in a line: ELISA on coated integrin αvβ3 (1 µg/mL), detection with HRP-labeled anti-human IgG antibody.
Description: The integrin αvβ3 binding of each molecule with the RGD (Arg-Gly-Asp) peptide inserted in the Fc region was assessed by ELISA (enzyme-Linked immunosorbent assay). Specifically, integrin αvβ3 (R & D Systems, Inc.) diluted to 1 μg/mL with a coating buffer (0.1 M NaHCO₃, pH 9.6) was added at a concentration of 100 μL/well to Nunc-Immuno™ MicroWell™ 96 well solid plates (Nunc) to immobilize the integrin αvβ3 to the plates. Each well of the antigen (integrin αvβ3)-immobilized plates was washed three times with 250 μL of a TBS solution containing 0.1 g/L calcium chloride and 0.1 g/L magnesium chloride (referred to as a TBS(+) solution). A TBS solution containing 5% BSA, 0.1 g/L calcium chloride, and 0.1 g/L magnesium chloride (referred to as a blocking solution) was added thereto at a concentration of 250 μL/well, and the plates were incubated at room temperature for 1 hour.
After removal of the blocking solution, each well was washed three times with a TBS(+) solution. […]
After removal of the HRP-labeled antibody solution, each well was washed three times with a TBS(+) solution. […] The absorbance of the solution whose reaction had been stopped was measured at a wavelength of 450 nm.

Experiment [3] deals with T3, FcγRIIa(R) extracellular domain with C-terminal His tag (human, UniProt P12318 34-217).
T3 construct: extracellular domain; polymorphic form R131; also called FcγRIIa R type
T3 sequence: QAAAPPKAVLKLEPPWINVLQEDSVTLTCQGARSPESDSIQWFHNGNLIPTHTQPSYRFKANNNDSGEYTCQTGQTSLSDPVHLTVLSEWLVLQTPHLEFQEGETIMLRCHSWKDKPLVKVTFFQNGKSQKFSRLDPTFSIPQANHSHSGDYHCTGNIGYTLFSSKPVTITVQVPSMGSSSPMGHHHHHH
The experiment in a line: SPR (Biacore), captured antibody, FcγR analyte, 1:1 Langmuir fit.
Description: (§1) The antibody of interest was analyzed for its interaction with FcγR using a BiaCore™ T100, BiaCore™ A100, or BiaCore™ 4000 surface plasmon resonance system (GE Healthcare Japan Corp.). The running buffer used was HBS-EP+ (GE Healthcare Japan Corp.). The assay temperature was set to 25° C. The sensor chips used were: a chip prepared by immobilizing antigenic peptides onto Series S Sensor Chip CM5 (GE Healthcare Japan Corp.) by the amine coupling method; a chip prepared by immobilizing antigenic peptides biotinylated in advance onto Series S Sensor Chip SA (certified) (GE Healthcare Japan Corp.) through their interaction; a chip prepared by immobilizing protein L (ACTIGEN, BioVision, Inc.) onto Series S Sensor Chip CM5 (GE Healthcare Japan Corp.); and a chip prepared by immobilizing protein A/G (Thermo Fisher Scientific K.K.) onto Series S Sensor Chip CM5 (GE Healthcare Japan Corp.). The antibody of interest was captured onto any of these chips and allowed to interact with FcγR diluted with a running buffer. The antibody captured on the chip was washed off through the reaction of 10 mM glycine-HCl (pH 1.5) to regenerate the chip, which was repetitively used.

Experiment [4] addresses T4, FcγRIIb extracellular domain with C-terminal His tag (human, UniProt P31994 43-217).
T4 construct: extracellular domain
T4 sequence: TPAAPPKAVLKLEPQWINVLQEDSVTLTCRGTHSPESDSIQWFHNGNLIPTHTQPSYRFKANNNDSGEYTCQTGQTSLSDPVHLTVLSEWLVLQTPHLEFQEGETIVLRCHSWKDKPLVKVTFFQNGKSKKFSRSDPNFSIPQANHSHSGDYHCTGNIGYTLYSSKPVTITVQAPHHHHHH
The experiment is described as above.
Description: as §1

The target in experiment [5] is T5, FcγRIIa(H) extracellular domain with C-terminal His tag (human, UniProt P12318 34-217).
T5 construct: extracellular domain; polymorphic form H131; also called FcγRIIa H type
T5 sequence: T3 sequence with R134H
The description is as above.
Description: as §1

The target of experiment [6] is T6, FcγRIIIa(V) extracellular domain with C-terminal His tag (human, UniProt P08637 17-208).
T6 construct: extracellular domain; polymorphic form V158; also called FcγRIIIa V type
The description is as above.
Description: as §1

In experiment [7] the target is T7, FcγRIIIa(F) extracellular domain with C-terminal His tag (human, UniProt P08637 17-208).
T7 construct: extracellular domain; polymorphic form F158; also called FcγRIIIa F type
The description is as above.
Description: as §1

Experiment [8] addresses T8, FcγRIa extracellular domain with C-terminal His tag (human, UniProt P12314 16-292).
T8 construct: extracellular domain
The experiment is described as above.
Description: as §1

Experiment [9] has as its target T3, FcγRIIa(R) extracellular domain with …. The description is as above. This is another data set of the same source.
Description: as §1
In experiment [10] the target is T4, FcγRIIb extracellular domain with …. The experiment is described as above. This is another data set of the same source.
Description: as §1
The target of experiment [11] is T5, FcγRIIa(H) extracellular domain with …. The experiment is described as above. This is another data set of the same source.
Description: as §1
Experiment [12] concerns the target T6, FcγRIIIa(V) extracellular domain with …. The experiment is described as above. This is another data set of the same source.
Description: as §1
Experiment [13] concerns the target T7, FcγRIIIa(F) extracellular domain with …. The description is as above. The source holds these as a separate data set.
Description: as §1
Experiment [14] addresses T8, FcγRIa extracellular domain with …. Described as above. This is another data set of the same source.
Description: as §1

T8 sequence (P12314 other isoform, or with tags, fused parts or gaps): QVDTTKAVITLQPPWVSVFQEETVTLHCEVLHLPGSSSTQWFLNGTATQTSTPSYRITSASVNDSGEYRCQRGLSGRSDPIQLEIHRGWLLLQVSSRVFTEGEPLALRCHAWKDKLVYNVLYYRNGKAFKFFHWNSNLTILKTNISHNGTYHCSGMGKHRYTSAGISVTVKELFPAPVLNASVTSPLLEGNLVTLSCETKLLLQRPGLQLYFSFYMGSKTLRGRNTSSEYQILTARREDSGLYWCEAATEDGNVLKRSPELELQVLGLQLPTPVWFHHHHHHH
T6 sequence (P08637 other isoform, or with tags, fused parts or gaps): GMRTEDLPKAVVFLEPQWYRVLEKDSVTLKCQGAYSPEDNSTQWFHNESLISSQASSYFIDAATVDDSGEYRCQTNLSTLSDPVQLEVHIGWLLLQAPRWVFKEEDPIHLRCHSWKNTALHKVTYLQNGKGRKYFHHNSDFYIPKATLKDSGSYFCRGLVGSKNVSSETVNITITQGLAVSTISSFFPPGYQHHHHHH
T7 sequence (P08637 other isoform, or with tags, fused parts or gaps): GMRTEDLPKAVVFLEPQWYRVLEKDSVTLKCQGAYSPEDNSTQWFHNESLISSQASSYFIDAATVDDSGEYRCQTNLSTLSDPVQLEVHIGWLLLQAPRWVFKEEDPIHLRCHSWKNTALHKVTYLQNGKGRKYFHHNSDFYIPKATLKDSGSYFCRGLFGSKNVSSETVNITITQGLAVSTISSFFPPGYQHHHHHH
T2 sequence (P06756 31-992, chain 1 of 2): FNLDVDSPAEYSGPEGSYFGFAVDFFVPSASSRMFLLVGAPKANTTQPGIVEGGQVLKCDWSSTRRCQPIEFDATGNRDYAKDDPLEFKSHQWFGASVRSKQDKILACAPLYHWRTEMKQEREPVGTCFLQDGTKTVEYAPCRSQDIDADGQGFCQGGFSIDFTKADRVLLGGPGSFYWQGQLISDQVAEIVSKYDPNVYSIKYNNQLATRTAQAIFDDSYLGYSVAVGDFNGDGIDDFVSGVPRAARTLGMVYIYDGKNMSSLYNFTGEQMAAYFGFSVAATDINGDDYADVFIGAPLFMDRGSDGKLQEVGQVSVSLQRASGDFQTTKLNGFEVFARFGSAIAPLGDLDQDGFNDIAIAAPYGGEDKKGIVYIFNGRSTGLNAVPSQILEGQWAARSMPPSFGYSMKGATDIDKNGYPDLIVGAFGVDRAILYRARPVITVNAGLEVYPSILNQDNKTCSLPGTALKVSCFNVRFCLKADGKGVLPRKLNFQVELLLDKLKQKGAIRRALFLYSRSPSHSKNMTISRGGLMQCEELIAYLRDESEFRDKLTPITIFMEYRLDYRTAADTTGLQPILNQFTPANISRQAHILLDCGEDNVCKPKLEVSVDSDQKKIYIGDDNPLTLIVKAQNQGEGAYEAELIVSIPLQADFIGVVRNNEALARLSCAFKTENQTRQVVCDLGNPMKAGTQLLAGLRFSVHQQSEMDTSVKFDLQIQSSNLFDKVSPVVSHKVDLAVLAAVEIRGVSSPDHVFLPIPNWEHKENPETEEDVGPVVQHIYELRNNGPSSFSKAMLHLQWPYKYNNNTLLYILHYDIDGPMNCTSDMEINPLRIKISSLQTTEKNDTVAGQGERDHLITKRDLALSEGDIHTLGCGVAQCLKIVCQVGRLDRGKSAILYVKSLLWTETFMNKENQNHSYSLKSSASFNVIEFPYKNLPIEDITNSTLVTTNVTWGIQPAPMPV
T2 sequence (P05106 27-718, chain 2 of 2): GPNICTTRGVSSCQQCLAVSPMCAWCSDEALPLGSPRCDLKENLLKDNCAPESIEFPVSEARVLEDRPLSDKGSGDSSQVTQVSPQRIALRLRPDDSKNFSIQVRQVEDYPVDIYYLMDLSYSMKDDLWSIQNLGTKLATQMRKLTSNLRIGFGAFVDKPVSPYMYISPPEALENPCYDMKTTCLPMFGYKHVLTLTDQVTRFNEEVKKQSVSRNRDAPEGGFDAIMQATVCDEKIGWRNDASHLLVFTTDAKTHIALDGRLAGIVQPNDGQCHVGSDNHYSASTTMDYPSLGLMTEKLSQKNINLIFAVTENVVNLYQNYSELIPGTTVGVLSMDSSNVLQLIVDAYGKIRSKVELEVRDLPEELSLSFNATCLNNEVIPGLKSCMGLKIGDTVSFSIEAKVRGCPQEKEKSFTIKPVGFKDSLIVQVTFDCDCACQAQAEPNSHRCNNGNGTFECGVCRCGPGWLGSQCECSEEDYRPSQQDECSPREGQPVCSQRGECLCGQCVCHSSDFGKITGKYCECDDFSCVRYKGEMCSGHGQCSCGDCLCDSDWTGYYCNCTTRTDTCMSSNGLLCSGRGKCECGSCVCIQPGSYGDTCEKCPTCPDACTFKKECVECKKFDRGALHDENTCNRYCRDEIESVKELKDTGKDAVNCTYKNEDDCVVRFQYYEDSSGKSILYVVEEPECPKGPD

B1: GpH7-A57/GpH7-B78/GpL16-k0 (antibody, human IgG1, kappa)
heavy 1: QVQLVQSGAEVKKPGASVTVSCKASGYTFTDYEMHWIRQPPGEGLEWIGAIDPKTGDTAYSESFQDRVTLTADKSTSTAYMELSSLTSEDTAVYYCTRFYSYTYWGQGTLVTVSSASTKGPSVFPLAPSSKSTSGGTAALGCLVKDYFPEPVTVSWNSGALTSGVHTFPAVLQSSGLYSLSSVVTVPSSSLGTQTYICNVNHKPSNTKVDKKVEPKSCDKTHTCPPCPAPELLGGPDVFLFPPKPKDTLMISRTPEVTCVVVDVSHEDPEVKFNWYVDGVEVHNAKTKPREEQYNSTYRVVSVLTVLHQDWLNGKEYKCKVSNKALPLPEEKTISKAKGQPREPQVYTLPPSRKELTKNQVSLTCLVKGFYPSDIAVEWESNGQPENNYKTTPPVLDSDGSFFLYSKLTVDKSRWQQGNVFSCSVMHEALHNRYTQKSLSLSP
heavy 2: B1 heavy 1 with K354D, R433H, K437E
light: DIVMTQSPLSLPVTPGEPASISCQASESLVHSNRNTYLHWYLQKPGQSPQLLIYKVSNRFSGVPDRFSGSGSGTDFTLKISRVEAEDVGVYYCSQNTHVPPTFGQGTKVEIERTVAAPSVFIFPPSDEQLKSGTASVVCLLNNFYPREAKVQWKVDNALQSGNSQESVTEQDSKDSTYSLSSTLTLSKADYEKHKVYACEVTHQGLSSPVTKSFNRGEC
notes: Called homodimerized: S239D, A330L, I332E in both H chains
Regarding B1, in [1], the “fold FcγRIIIa-binding activity against the corresponding heterodimerized antibody (GpH7-A5/GpH7-B78/GpL16-k0)” value was approximately 9 times.

B2: GpH7-TA7/GpH7-B78/GpL16-k0 (antibody, human IgG1, kappa)
heavy 1: B1 heavy 1 with L232Y, G234W, D237S, S296A, L328A, E330I
heavy 2: B1 heavy 1 with K354D, R433H, K437E
light: B1 light
notes: L234Y, G236W, S298A in one H chain and S239D, A330L, I332E in the other
B2: in experiment [1], the “fold FcγRIIIa-binding activity against GpH7-A5/GpH7-B78/GpL16-k0” value is not below 10 times.

B3: H240-Kn125/H240-Hl076/L73-k0 (antibody, human IgG1, kappa)
heavy 1: QDQLVQSGAEVKKPGASVKVSCKASGFNIKDTYIQWVRQAPGQGLEWMGRIDPLRKQTKYREKFEGRVTITADTSTNTAYMELSSLRSEDTAVYYCVRSGREFDYWGQGTLVTVSSASTKGPSVFPLAPSSKSTSGGTAALGCLVKDYFPEPVTVSWNSGALTSGVHTFPAVLQSSGLYSLSSVVTVPSSSLGTQTYICNVNHKPSNTKVDKKVEPKSCDKTHTCPPCPAPEYQWGPMVFLFPPKPKDTLMISRTPEVTCVVVDVSDEEPEVKFNWYVDGVEVHNAKTKPREEQYNATYRVVSVLTVLHQDWLNGKEYKCKVSNKALPAPIEKTISKAKGQPREPQVCTLPPSRDELTKNQVSLWCLVKGFYPSDIAVEWESNGQPENNYKTTPPVLDSDGSFFLYSKLTVDKSRWQQGNVFSCSVMHEALHNHYTQKSLSLSP
heavy 2: QDQLVQSGAEVKKPGASVKVSCKASGFNIKDTYIQWVRQAPGQGLEWMGRIDPLRKQTKYREKFEGRVTITADTSTNTAYMELSSLRSEDTAVYYCVRSGREFDYWGQGTLVTVSSASTKGPSVFPLAPSSKSTSGGTAALGCLVKDYFPEPVTVSWNSGALTSGVHTFPAVLQSSGLYSLSSVVTVPSSSLGTQTYICNVNHKPSNTKVDKKVEPKSCDKTHTCPPCPAPELLGGPSVFLFPPKPKDTLMISRTPEVTCVVVDVSHEEPEVKFNWYVDGVEVHNAKTKPREEQYNSTYRVVSVLTVLHQDWLNGKEYKCKVSNDALPMPIEETISKAKGQPREPQVYTLPPSRCELTKNQVSLSCAVKGFYPSDIAVEWESNGQPENNYKTTPPVLDSDGSFFLVSKLTVDKSRWQQGNVFSCSVMHEALHNHYTQKSLSLSP
light: DIQMTQSPSSLSASVGDRVTITCRASQDIHKYIAWYQQKPGQAPRLLIQYTSTLQPGVPSRFSGSGSGTDYTFTISSLQPEDIATYYCLQYEQLRTFGGGTKVEIKRTVAAPSVFIFPPSDEQLKSGTASVVCLLNNFYPREAKVQWKVDNALQSGNSQESVTEQDSKDSTYSLSSTLTLSKADYEKHKVYACEVTHQGLSSPVTKSFNRGEC
notes: also called Hl076/Kn125; parent peptide
Consider B3, for which the binding result in [2] is “no binding (tested: 100 µg/mL)”.

B4: H240-Kn032/H240-Hl032/L73-k0 (antibody, human IgG1, kappa)
heavy 1: B3 heavy 1 with Y233L, Q234L, W235G, M238D, D267H, E269D, A297S, A329L, I331E
heavy 2: B3 heavy 2 with S238D, E269D, D325K, M329L, I331E, E333K
light: B3 light
notes: anti-epiregulin IgG1 called homodimerized: S239D/A330L/I332E in both H chains, knobs-into-holes; also called H240-Kn032/H240-HI032/L73-k0
As for B4, the Kd came to 340 nM in [3]; 620 nM in experiment [4]; 690 nM in [5]; 3.1 nM in [6]; 9.1 nM in experiment [7]; 0.073 nM in experiment [8]. Also, the Kd in [9] was found to be 340 nM; in [10], 620 nM; in experiment [11] it was 690 nM; in experiment [12], 3.1 nM; in [13] it was 9.1 nM; in experiment [14], 0.073 nM.

B5: H240-Kn061/H240-Hl071/L73-k0 (antibody, human IgG1, kappa)
heavy 1: B3 heavy 1 with Q234Y, M238S, E269D
heavy 2: B3 heavy 2 with E269D
light: B3 light
notes: heterodimerized anti-epiregulin IgG1; L234Y/L235Y/G236W/H268D/S298A in Kn061, K326D/A330M/K334E in Hl071; also called H240-Kn061/H240-HI071/L73-k0
Consider B5, for which the Kd in experiment [3] stood at 350 nM; in [4], 1200 nM; in experiment [5], 280 nM; in experiment [6], 1.8 nM; in experiment [7], 5.1 nM; in [8], 0.14 nM. Moreover, the Kd in [9] was 350 nM; in experiment [10] it was 1200 nM; in [11], 280 nM; in [12], 1.8 nM; in experiment [13], 5.1 nM; in [14] it was 0.14 nM.
